From patent US20250313631A1 (HUMMINGBIRD BIOSCIENCE PTE, published 2025)
Where two headings read alike, the source gives them in different places. Blank lines part the entries; values can stand above or below the binder they belong to.

Tests used:
human CTLA4 [1] = biological target: T1, human CTLA4 (human, UniProt P16410 36-162); assay: ELISA, plate coated with the antigen
human B7H7 = biological target: T2, human B7H7 (human, UniProt Q9UM44 23-344); assay: ELISA, plate coated with the antigen
T2 construct: also called HHLA2
T2 sequence (looked up): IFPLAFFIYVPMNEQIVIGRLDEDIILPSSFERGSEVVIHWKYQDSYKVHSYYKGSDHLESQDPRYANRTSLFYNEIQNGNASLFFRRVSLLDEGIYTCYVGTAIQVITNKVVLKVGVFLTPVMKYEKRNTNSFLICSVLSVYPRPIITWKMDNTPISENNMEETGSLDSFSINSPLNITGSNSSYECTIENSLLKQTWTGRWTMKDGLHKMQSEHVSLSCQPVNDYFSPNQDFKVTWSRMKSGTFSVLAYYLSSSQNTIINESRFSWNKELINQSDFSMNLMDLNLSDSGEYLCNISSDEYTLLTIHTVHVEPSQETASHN

human B7H6 [2] = biological target: T3, human B7H6 (human, UniProt Q68D85 25-262); assay: ELISA, plate coated with the antigen
T3 construct: also called NCR3LG1
T3 sequence (looked up): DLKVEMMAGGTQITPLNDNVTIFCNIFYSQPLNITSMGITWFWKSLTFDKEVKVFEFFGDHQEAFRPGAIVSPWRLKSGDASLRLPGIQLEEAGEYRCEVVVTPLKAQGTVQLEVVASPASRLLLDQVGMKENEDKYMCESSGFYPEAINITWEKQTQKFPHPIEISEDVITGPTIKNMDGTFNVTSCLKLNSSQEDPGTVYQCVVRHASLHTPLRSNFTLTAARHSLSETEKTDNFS

human PD-1 [3] = biological target: T4, human PD-1 (human, UniProt Q15116 25-167); assay: ELISA, plate coated with the antigen
T4 sequence (Q15116 25-167 limits assumed): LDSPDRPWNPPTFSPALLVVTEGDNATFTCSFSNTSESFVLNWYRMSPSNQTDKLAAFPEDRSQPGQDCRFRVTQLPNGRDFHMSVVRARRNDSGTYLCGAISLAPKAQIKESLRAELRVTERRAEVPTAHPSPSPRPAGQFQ

human B7H4 = biological target: T5, human B7H4 (human, UniProt Q7Z7D3 25-258, limits assumed); assay: ELISA, plate coated with the antigen
T5 construct: also called VTCN1
T5 sequence (looked up): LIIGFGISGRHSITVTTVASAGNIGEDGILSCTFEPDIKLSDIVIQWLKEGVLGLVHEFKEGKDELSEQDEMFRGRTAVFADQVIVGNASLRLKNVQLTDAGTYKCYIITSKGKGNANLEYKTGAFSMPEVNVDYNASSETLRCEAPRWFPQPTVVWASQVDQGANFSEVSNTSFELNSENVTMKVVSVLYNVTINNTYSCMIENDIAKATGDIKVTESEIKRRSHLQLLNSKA

human CTLA4 [4] = biological target: T1, human CTLA4; assay: ELISA, plate coated with the antigen; remark: listed apart in the source
human B7H6 [5] = biological target: T3, human B7H6; assay: ELISA, plate coated with the antigen; remark: listed apart in the source
human PD-1 [6] = biological target: T4, human PD-1; assay: ELISA, plate coated with the antigen; remark: listed apart in the source
[7] = biological target: T6, recombinant mouse VISTA (His-tagged) (mouse, UniProt Q9D659 33-191); assay: SPR (Biacore), VISTA-HIS captured, antibody as analyte, 1:1 model; SPR (Biacore), mouse VISTA
T6 construct: also called murine VISTA; mVISTA
T6 sequence (looked up): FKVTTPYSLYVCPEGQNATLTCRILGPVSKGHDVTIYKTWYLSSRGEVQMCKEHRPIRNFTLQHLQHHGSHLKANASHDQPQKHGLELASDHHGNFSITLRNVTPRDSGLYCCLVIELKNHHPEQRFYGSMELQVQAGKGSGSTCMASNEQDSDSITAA

[8] = biological target: T7, recombinant human VISTA (His-tagged) (human, UniProt Q9H7M9 33-194); assay: antigen-binding ELISA; HMBD-002 10 mg/mL in F5, day 0
T7 construct: bought soluble protein (Sino Biological); also called hVISTA; human VISTA polypeptide

[9] = biological target: T7, recombinant human VISTA (His-tagged); assay: antigen-binding ELISA; HMBD-002 in F8, day 30 at 40°C
human PD-L1 = biological target: T8, human PD-L1 (human, UniProt Q9NZQ7 19-239); assay: ELISA, plate coated with human B7H1 (PDL1), antibody titrated
T8 construct: captured through a His tag in the BLI experiments; also called hPD-L1; B7H1/PDL-1
T8 sequence (Q9NZQ7 19-239 limits assumed): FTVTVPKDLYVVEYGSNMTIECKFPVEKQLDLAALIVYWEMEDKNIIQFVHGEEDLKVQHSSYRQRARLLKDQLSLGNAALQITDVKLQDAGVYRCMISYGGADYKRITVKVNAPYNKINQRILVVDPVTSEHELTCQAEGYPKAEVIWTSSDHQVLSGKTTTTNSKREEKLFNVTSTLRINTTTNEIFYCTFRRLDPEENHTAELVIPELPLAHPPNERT

[10] = biological target: T6, recombinant mouse VISTA (His-tagged); assay: ELISA, VISTA-HIS protein coated; ELISA, mouse VISTA-HIS
[11] = biological target: T7, recombinant human VISTA (His-tagged); assay: antigen-binding ELISA; HMBD-002 10 mg/mL in F3, day 0
[12] = biological target: T9, recombinant cynomolgus macaque VISTA (His-tagged) (cynomolgus macaque, UniProt A0A7N9IB00 33-194); assay: SPR (Biacore), NHP VISTA-HIS captured, antibody as analyte, 1:1 model; SPR (Biacore), NHP (cynomolgus) VISTA
T9 construct: also called cyno VISTA; cynomolgus monkey VISTA

[13] = biological target: T7, recombinant human VISTA (His-tagged); assay: antigen-binding ELISA; HMBD-002 in F10, day 20 at 40°C
human C1q protein = human C1q protein (human, UniProt P02745 23-245; P02746 28-253; P02747 29-245); assay: ELISA, plate coated with human C1q protein, detection with HRP anti-human Fc antibody
Sequence of human C1q protein (P02745 23-245 limits assumed, chain 1 of 3): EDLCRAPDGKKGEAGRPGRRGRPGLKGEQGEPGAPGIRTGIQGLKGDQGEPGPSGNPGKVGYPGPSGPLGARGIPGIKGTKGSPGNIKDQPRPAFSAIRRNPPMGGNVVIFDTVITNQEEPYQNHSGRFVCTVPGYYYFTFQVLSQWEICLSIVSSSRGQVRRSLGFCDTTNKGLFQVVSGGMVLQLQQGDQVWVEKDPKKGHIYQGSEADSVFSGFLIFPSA
Sequence of human C1q protein (P02746 28-253 limits assumed, chain 2 of 3): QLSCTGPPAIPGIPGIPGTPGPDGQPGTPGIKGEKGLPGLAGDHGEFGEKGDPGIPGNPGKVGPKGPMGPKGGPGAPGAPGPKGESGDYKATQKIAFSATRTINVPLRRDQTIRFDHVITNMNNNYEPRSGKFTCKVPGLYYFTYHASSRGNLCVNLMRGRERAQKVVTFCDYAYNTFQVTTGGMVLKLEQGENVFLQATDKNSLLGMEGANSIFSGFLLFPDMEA
Sequence of human C1q protein (P02747 29-245 limits assumed, chain 3 of 3): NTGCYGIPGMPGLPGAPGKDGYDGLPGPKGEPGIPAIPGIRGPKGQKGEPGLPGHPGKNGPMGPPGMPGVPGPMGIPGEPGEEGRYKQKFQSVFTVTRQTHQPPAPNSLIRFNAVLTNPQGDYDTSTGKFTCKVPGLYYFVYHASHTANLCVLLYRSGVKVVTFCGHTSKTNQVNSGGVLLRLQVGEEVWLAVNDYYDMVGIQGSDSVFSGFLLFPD

[14] = biological target: T7, recombinant human VISTA (His-tagged); assay: antigen-binding ELISA; HMBD-002 in F5, day 10 at 40°C
[15] = biological target: T6, recombinant mouse VISTA (His-tagged); assay: BLI (Octet QK384), His-tagged VISTA on anti-Penta-HIS tips, antibody as analyte
[16] = biological target: T9, recombinant cynomolgus macaque VISTA …; assay: as above

T1 sequence (P16410 36-162 limits assumed): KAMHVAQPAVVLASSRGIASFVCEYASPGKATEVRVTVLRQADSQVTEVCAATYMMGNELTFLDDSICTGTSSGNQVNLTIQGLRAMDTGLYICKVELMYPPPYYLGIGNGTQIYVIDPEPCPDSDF

binding result (human CTLA4 [1]): no binding (tested: log -7.5 M)
binding result (human B7H7): no binding (tested: log -7.5 M)
binding result (human B7H6 [2]): no binding (tested: log -7.5 M)
binding result (human PD-1 [3]): no binding (tested: log -7.5 M)
B1: anti-VISTA clone V4-C24 IgG1 (antibody, V domains shown)
VH: QVQLQESGPGLVKPSDTLSLTCTVSGYSITSDYTWNWIRQTPGKGLEWIGHITYSGSVSYNPSLRSRVTISRDTSKNQFSLKLSSVTAADTATYSCARALYYPWYFDVWGTGTTVTVSS
VL: EIVLTQSPATLSLSPGERATLSCRASSSVGYIHWYQQKPGQAPRPLIYTTSYRATGIPARFSGSGSGTDNTLTISSLEPEDSAVYYCQQWSSYPPITFGGGTKLEVKR

binding result (human B7H4): no binding (tested: log -7.5 M)
binding result (human CTLA4 [4]): no binding (tested: log -7.5 M)
binding result (human B7H6 [5]): no binding (tested: log -7.5 M)
binding result (human PD-1 [6]): no binding (tested: log -7.5 M)
B2: anti-VISTA clone V4-C27 IgG1 (antibody, V domains shown)
VH: QVQLQESGPGLVKPSDTLSLTCTVSGYSITSDYTWNWIRQTPGKGLEWIGHITYSGSVSYNPSLRSRVTISRDTSKNQFSLKLSSVTAADTATYSCARALYYPWYFDVWGTGTTVTVSS
VL: EIVLTQSPATLSLSPGERATLSCRASSSVGYIHWYQQKPGQAPRPLIYATYNRATGIPARFSGSGSGTDNTLTISSLEPEDSAVYYCQQWSSYPPITFGGGTKLEVKR

Kd [7]: 0.549 nM
EC50 [8]: 0.031 nM
EC50 [9]: 0.0227 nM
binding result (human PD-L1): no binding (tested: about 3e-8 M)
EC50 [10]: 0.00355 nM
EC50 [11]: 0.0308 nM
Kd [12]: 0.367 nM
EC50 [13]: 0.0235 nM
binding result (human C1q protein): no binding (tested: about 2e-7 M)
EC50 [14]: 0.0341 nM
B3: V4-C26 hIgG4 (antibody)
heavy: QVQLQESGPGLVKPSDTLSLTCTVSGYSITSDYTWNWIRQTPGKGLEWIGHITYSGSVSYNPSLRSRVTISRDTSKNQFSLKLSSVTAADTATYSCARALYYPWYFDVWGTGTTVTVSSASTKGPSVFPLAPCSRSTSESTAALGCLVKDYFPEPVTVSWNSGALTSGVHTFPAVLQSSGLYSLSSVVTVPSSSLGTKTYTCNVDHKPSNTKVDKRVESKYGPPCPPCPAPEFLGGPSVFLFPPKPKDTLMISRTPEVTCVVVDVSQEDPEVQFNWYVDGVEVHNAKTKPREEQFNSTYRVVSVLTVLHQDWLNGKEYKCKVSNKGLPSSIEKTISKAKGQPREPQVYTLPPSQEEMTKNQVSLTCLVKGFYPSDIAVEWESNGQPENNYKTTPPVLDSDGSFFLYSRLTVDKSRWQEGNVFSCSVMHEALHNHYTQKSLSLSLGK
light: EIVLTQSPATLSLSPGERATLSCRASSSVGYIHWYQQKPGQAPRPIIYTTSNRATGIPARFSGSGSGTDNTLTISSLEPEDSAVYYCQQWSSYPPITFGGGTKLEVKRTVAAPSVFIFPPSDEQLKSGTASVVCLLNNFYPREAKVQWKVDNALQSGNSQESVTEQDSKDSTYSLSSTLTLSKADYEKHKVYACEVTHQGLSSPVTKSFNRGEC
notes: human IgG4 (S228P)/kappa format; also called HMBD-002; HMBD-002-V4C26

Kd [15]: 113 nM
Kd [16]: < 0.001 nM
B4: anti-VISTA clone 4M2-C12 IgG1 (antibody)
heavy: not shown
light: DIVITQTPAILSTSPGEKVTMTCRASSSVGYIHWYQQKPGSSPKPWIYATSNLASGVPARFSGSGSGTSNSLTITRVEAEDAATYYCQQWSSYPPITFGGGTKLEVKRTVAAPSVFIFPPSDEQLKSGTASVVCLLNNFYPREAKVQWKVDNALQSGNSQESVTEQDSKDSTYSLSSTLTLSKADYEKHKVYACEVTHQGLSSPVTKSFNRGEC
notes: mouse variable regions on human IgG1/kappa constant regions; also called V4; V4pr
